# Data published in paper PMC6726447.
# Molecular target: HAdV-D26 fiber knob protein (human adenovirus type 26 (HAdV-D26))
# Experiment: crystal structure; HAdV-D26K crystals (PACT Premier B01 and B04, pH 4.0 and pH 8.0) soaked in 10 mM Neu5Ac; cubic space group, biological trimer assembled from it
substance,measurement,value
HAdV-D26 fiber knob protein (domain or fragment),stoichiometry N,3
